Measurements from IntAct's records for PubMed 20126385.

B1: Adenomatous polyposis coli protein-related protein 1 (Caenorhabditis elegans), Q21227-1 (parent)
chain: MSSSSSDENETTIHRTGSNTGGSGIYSQPRAGSSKRTSNVRHDVSDVDDEEEHYARFREDTAIEVDDAITVLLSSLHFEHKRDIVPTDEDDNKLRELHEKIFALITSESDVNRKRRLKKALPASNCVREQVYYLRRKPSTPPASYYHRLNAALHTIVKESFGEEYRKVATVLGLVEALAEVLILEVHTFGINETNPGEHRNIRKLIANALTNLTYGQIHSKRRLCSYDGFIRCVVRIVIESPNITQVYAGLIRNLSWNADSGMSEALQPTVHALSIAAVHAHTHRFDVTATLSALWNLAGHSVENKRTICDTPNCLKVLASLLSPDARFTSLVDSATGILKYVSQYLANTSTHLELRSLLITRMLTLLKSASFTCVTNTLGAIANLIVKDPHMQQMIRQDMAAVQQLNVLRNSNRDDIRTAVKSVLNTLNQPCSHRYGDMSHSVGGGATGMQMLSEPQLQMQTSHHAYHGTASPRLLSLRATRASPGKYIQPQAQQQLIQTPQVDQRSSSLPRHFAVQRNGFVMAQSYNQQMDQHQQQQMIYQLQQQQQIMFQTEDQAQMEHHQQIMYLQQQQQQFHQIQQQQQMQKAQEADPVPPTDDDLDIPTSTVMGTRSNSERSLGSMNPGSVMTNWNSSLDTAANSSRALSPVSYNDIPASPTMCAQVFNLPKSTESEHHQLTSQQQNTTHYSSGSANTMTRSDGATTVPMDNIITPTYAILNPILVHEQTPNGTVPRKTSEELDSPDDVLPGPSLEEEEGDYAIIGGAAQKTDDELLTRSIQSEMPTSSSTPKMKVSPRLNGFFSPTQKTTSSPAWSHPDTSPIPKSSSHRTQPNRRQDASDADRLLMESIMSEMPKSRIISPRLAGTQQYLEPEPERRSHSKNEEADRRDAFTASHEPSDHNGIDVARGSDWSPQQQLHRMESLESQASSEDSFGLTAEEPNSSTSGAAANTMRFDDEIDASLPMDCVDDDDYDYTYDHFEDYEDEEDPDATQFDDGVDAQLTIDCSMISSGSGSSQRNETTTTSRDSKALATSTPKGSASSLPGVRQATRVSTNGKSRLPVPKTNGSLVDKNPKPIIASRRPRLPPKPTLLKDKHYPEEDSIENQTRDDTIYVNAPVVEAEQERIYMNALKQQKNIEQSPSIGNGSPIAKSAIVTPYNYQKPPFTGRNNGEMSNEKSVTPNPKQMLVTIV
partner: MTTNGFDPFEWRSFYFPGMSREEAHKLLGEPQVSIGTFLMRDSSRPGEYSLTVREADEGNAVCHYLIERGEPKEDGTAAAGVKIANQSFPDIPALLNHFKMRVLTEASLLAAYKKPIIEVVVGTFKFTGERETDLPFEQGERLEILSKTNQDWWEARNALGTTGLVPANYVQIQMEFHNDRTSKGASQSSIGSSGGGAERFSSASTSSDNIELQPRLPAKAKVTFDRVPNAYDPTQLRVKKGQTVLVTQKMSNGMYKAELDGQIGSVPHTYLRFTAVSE

Variants of: B1
Conditions: with ced2_caeel ced-2, Q9NHC3

Variant	effect of a mutation on the interaction
Y489A	decreasing interaction
